Here are results for two variants from IntAct's records for PubMed 7664803.

Sequences and labels used below:
B1: Proto-oncogene tyrosine-protein kinase LCK (Mus musculus), P06240 (parent)
chain: MGCVCSSNPEDDWMENIDVCENCHYPIVPLDSKISLPIRNGSEVRDPLVTYEGSLPPASPLQDNLVIALHSYEPSHDGDLGFEKGEQLRILEQSGEWWKAQSLTTGQEGFIPFNFVAKANSLEPEPWFFKNLSRKDAERQLLAPGNTHGSFLIRESESTAGSFSLSVRDFDQNQGEVVKHYKIRNLDNGGFYISPRITFPGLHDLVRHYTNASDGLCTKLSRPCQTQKPQKPWWEDEWEVPRETLKLVERLGAGQFGEVWMGYYNGHTKVAVKSLKQGSMSPDAFLAEANLMKQLQHPRLVRLYAVVTQEPIYIITEYMENGSLVDFLKTPSGIKLNVNKLLDMAAQIAEGMAFIEEQNYIHRDLRAANILVSDTLSCKIADFGLARLIEDNEYTAREGAKFPIKWTAPEAINYGTFTIKSDVWSFGILLTEIVTHGRIPYPGMTNPEVIQNLERGYRMVRPDNCPEELYHLMMLCWKERPEDRPTFDYLRSVLDDFFTATEGQYQPQP

In assay [1] the parent is B1. The conditions noted are these: with cd4_mouse Cd4, P06332.
In assay [2] the parent is B1. The conditions noted are these: with cd8a_mouse Cd8a.

cd4_mouse Cd4, P06332, sequence (P06332 whole entry): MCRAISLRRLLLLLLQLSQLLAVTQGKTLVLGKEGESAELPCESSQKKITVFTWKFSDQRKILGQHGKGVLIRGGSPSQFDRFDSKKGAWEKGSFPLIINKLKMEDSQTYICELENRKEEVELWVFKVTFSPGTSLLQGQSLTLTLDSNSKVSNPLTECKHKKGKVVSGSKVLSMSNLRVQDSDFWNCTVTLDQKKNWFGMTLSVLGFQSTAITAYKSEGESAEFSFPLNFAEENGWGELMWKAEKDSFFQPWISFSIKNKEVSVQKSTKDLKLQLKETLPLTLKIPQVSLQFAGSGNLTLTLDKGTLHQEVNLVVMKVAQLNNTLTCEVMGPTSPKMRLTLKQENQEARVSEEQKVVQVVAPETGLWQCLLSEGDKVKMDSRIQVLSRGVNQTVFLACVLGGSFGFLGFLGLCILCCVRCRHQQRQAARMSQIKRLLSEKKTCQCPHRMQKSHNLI

As to C23A, the “effect of a mutation on the interaction” value in assay [1] and in assay [2] was “decreasing interaction” in each case.

Turning to C20A, the “effect of a mutation on the interaction” value in assay [1] and in assay [2] was “decreasing interaction” throughout.
